# Experimental data taken from patent publication US20030158100A1 (LUDWIG INSTITUTE FOR CANCER RESEARCH, published 2003).
# B1: IL-10R-Ig (Fc fusion, UniProt Q13651 22-235, looked up)
# chain: HGTELPSPPSVWFEAEFFHHILHWTPIPNQSESTCYEVALLRYGIESWNSISNCSQTLSYDLTAVTLDLYHSNGYRARVRAVDGSRHSNWTVTNTRFSVDEVTLTVGSVNLEIHNGFILGKIQLPRPKMAPANDTYESIFSHFREYEIAIRKVPGNFTFTHKKVKHENFSLLTSGEVGEFCVQVKPSVASRSNKGMWSKEECISLTRQYFTVTN
# notes: Control; Used as supernatant of cells transfected with IL-10R-Ig fusion cDNA; The construct is not described; also called IL-10R-Ig fusion; not shown: Ig part of the control fusion is not described
# B2: recombinant AK155 (ligand, human, UniProt Q9NPH9 22-171, looked up)
# chain: KHKQSSFTKSCYPRGTLSQAVDALYIKAAWLKATIPEDRIKNIRLLKKKTKKQFMKNCQFQEQLLSFFMEDVFGQLQLQGCKKIRFVEDFHSLRQKLSHCISCASSAREMKSITRMKRIFYRIGNKGIYKAISELDILLSWIKKLLESSQ
# notes: Coated on the ELISA plate; The assay paragraph says only 'recombinant AK155'
# B3: recombinant human IL-22 (ligand, UniProt Q9GZX6 34-179, looked up)
# chain: APISSHCRLDKSNFQQPYITNRTFMLAKEASLADNNTDVRLIGEKLFHGVSMSERCYLMKQVLNFTLEEVLFPQSDRFQPYMQEVVPFLARLSNRLSTCHIEGDDLHIQRNVQKLKDTVKKLGESGEIKAIGELDLLFMSLRNACI
# notes: also called IL-TIF
# B4: LICR-2-Ig (Fc fusion, murine)
# chain: RPRLAPPQNVTLLSQNFSVYLTWLPGLGNPQDVTYFVAYQSSPTRRRWREVEECAGTKELLCSMMCLKKQDLYNKFKGRVRTVSPSSKSPWVESEYLDYLFEVEPAPPVLVLTQTEEILSANATYQLPPCMPPLDLKYEVAFWKEGAGNKTLFPVTPHVTPHGQPVQITLQPAASEHHCLSARTIYTFSVPKYSKFSKPTCFLLEVPEPRIPKPSTPPGSSCPPGNILGGPSVFIFPPKPKDALMISLTPKVTCVVVDVSEDDPDVHVSWFVDNKEVHTAWTQPREAQYNSTFRVVSALPIQHQDWMRGKEFKCKVNNKALPAPIERTISKPKGRAQTPQVYTIPPPREQMSKKKVSLTCLVTNFFSEAISVEWERNGELEQDYKNTPPILDSDGTYFLYSKLTVDTDSWLQGEIFTCSVVHEALHNHHTQKNLSRSPGK
# notes: domain: hinge, and the CH2 and CH3 domains; Used as unpurified supernatant of transfected HEK293-EBNA cells
# Key:
# bovine serum albumin [1] = molecular target: T1, bovine serum albumin (bovine, UniProt P02769 25-607); experiment: ELISA, plate coated with BSA, 50 µl control supernatant, anti-murine Ig-peroxidase detection
# T1 construct: Control coating protein; also called BSA
# Protocol: (§1) Interaction analysis was carried out via ELISA. In brief, plates were coated with either recombinant AK155; Knappe, et al., J. Virol 74:3881-7 (2000), incorporated by reference, recombinant human IL-22, or 0.02 μg/ml of bovine serum albumin, and incubated with the test sample overnight at 4° C. The test substance, in all cases, was mixed in 20 mM Tris glycine buffer containing 30 mM NaCl, pH 9.2. After washing in PBS buffer plus Tween 20 (1×10⁻⁴ v/v), plates were blocked with PBS plus 1% BSA for 4 hours. 50 μl of supernatant derived from cells transfected with LICR-2 or with control supernatant referred to supra were added, and the plates were incubated for 2 hours, at 37° C. Bound LICR-2-Ig was detected using anti-murine Ig polyclonal antibodies coupled to peroxidase. The reaction was developed by adding 100 μl of TMB (1.25 mM), followed by 20 μl of H₂SO₄ (2M) to stop the reaction. Absorbance was measured at 450 nm.
# IL-10R-Ig [2] = molecular target: B1; experiment: ELISA, plate coated with recombinant AK155, 50 µl control supernatant, anti-murine Ig-peroxidase detection
# Protocol: as §1
# LICR-2-Ig = molecular target: B4; experiment: ELISA, plate coated with recombinant human IL-22, 50 µl supernatant, anti-murine Ig-peroxidase detection
# Protocol: as §1
# IL-10R-Ig [3] = molecular target: B1; experiment: ELISA, plate coated with recombinant human IL-22, 50 µl control supernatant, anti-murine Ig-peroxidase detection
# Protocol: as §1
# bovine serum albumin [4] = molecular target: T1, bovine serum albumin; experiment: ELISA, plate coated with BSA, 50 µl supernatant, anti-murine Ig-peroxidase detection
# Protocol: as §1
# T1 sequence (P02769 25-607 limits assumed): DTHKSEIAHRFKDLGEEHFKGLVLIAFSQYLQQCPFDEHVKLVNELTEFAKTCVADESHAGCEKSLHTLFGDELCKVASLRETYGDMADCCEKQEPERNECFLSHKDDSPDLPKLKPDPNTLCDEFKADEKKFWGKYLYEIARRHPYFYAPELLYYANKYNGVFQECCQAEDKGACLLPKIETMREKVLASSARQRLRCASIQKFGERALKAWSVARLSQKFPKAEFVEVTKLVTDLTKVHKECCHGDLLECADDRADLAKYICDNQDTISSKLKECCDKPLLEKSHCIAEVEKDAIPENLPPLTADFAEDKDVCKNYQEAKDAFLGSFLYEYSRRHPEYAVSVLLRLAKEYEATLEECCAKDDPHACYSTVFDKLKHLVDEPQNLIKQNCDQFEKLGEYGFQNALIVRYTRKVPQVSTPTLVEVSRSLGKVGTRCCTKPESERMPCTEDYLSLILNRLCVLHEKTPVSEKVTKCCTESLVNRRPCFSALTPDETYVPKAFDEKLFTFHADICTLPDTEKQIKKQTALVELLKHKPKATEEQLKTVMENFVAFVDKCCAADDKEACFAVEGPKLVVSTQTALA
binder,measurement,setting,value
B1,binding result,bovine serum albumin [1],no binding (tested: 0.02 µg/ml BSA (coating))
B2,binding result,IL-10R-Ig [2],no binding
B3,binding result,LICR-2-Ig,no binding
same,binding result,IL-10R-Ig [3],no binding
B4,binding result,bovine serum albumin [4],no binding (tested: 0.02 µg/ml BSA (coating))
